Where no end group is shown, it is not given here. [ ]: non-standard residue; d: D form. pY = N[C@@H](Cc1ccc(OP(=O)(O)O)cc1)C(=O)O
Molecular target: T1, EGFR pY1068 phosphododecapeptide dodecapeptide surrounding Y1068 (Homo sapiens, UniProt P00533)
T1 chain: LPVPE[pY]INQSVP
Assay: microscale thermophoresis

B1: STAT3 127-722 (protein)
chain: GQANHPTAAVVTEKQQMLEQHLQDVRKRVQDLEQKMKVVENLQDDFDFNYKTLKSQGDMQDLNGNNQSVTRQKMQQLEQMLTALDQMRRSIVSELAGLLSAMEYVQKTLTDEELADWKRRQQIACIGGPPNICLDRLENWITSLAESQLQTRQQIKKLEELQQKVSYKGDPIVQHRPMLEERIVELFRNLMKSAFVVERQPCMPMHPDRPLVIKTGVQFTTKVRLLVKFPELNYQLKIKVCIDKDSGDVAALRGSRKFNILGTNTKVMNMEESNNGSLSAEFKHLTLREQRCGNGGRANCDASLIVTEELHLITFETEVYHQGLKIDLETHSLPVVVISNICQMPNAWASILWYNMLTNNPKNVNFFTKPPIGTWDQVAEVLSWQFSSTTKRGLSIEQLTTLAEKLLGPGVNYSGCQITWAKFCKENMAGKGFSFWVWLDNIIDLVKKYILALWNEGYIMGFISKERERAILSTKPPGTFLLRFSESSKEGGVTFTWVEKDISGKTQIQSVEPYTKQQLNNMSFAEIIMGYKIMDATNILVSPLVYLYPDIPKEEAFGKYCRPESQEHPEADPGSAAPYLKTKFICVTPTTCSNTI
- Kd: 1.1 nM
